Assay [1] deals with Pseudomonas aeruginosa. Description: Bacterial tissue load quantification. The format is in vivo, mice. The note with it: 18 h after infection. The protocol: The infected mice were killed; the organs (spleen, lungs, liver and heart) were harvested and weighed. To determine CFUs per gram of tissue serial dilutions of tissue homogenates were prepared in PBS and plated on Pseudomonas Isolation Agar (PIA) (Difco laboratories) supplemented with appropriate antibiotics and incubated overnight at 37° C. The colonies were counted after 16-24 h.
For analysis of bacterial load, mice were killed at 18 h after infection, tissue homogenates were prepared from spleen, lungs, liver and heart, and were plated to determine CFU.

Assay [2] deals with Pseudomonas aeruginosa. Description: Survival after Pseudomonas aeruginosa infection following HS/PC transplantation. In kind it is in vivo, mice. Particulars: P. aeruginosa infection on Day8 after irradiation and HS/PC transplantation; three injections of 10 μg M-CSF. The method, then: (§1) To study the functional impact of MCSF mediated HSC commitment during infections, two separate series of experiments were performed. In all experiments, after lethal irradiation of recipients, 2500 HS/PC with 200,000 cKit-carrier cells from donors were grafted.
(§2) Uninfected mice that received HS/PC transplants served as controls for efficient life saving transplantation (black line; FIGS. 8A, 8B and FIGS. 10A, 10B; n=8). Two other groups of mice received either 3 injections of MCSF (rhMCSF or Bacculo virus produced mMCSF) or PBS on the day of HS/PC transplantation.
(§3) One-week post transplantation these mice were challenged with lethal doses of either the bacteria Pseudomonas aeruginosa or the opportunistic fungus Aspergillus fumigatus.
CD45.1 and C57Bl/6 mice were obtained from Charles River. 10-14 weeks old sex-matched CD45.2 recipients were reconstituted as described^3 with bone marrow derived KSL (c-Kit(CD117)+, Sca+, Lin−) HS/PC isolated from 6-8 weeks old CD45.1. For in vivo injections the indicated concentrations of M-CSF and/or sorted cells were injected in 100-200 μl of PBS into the retro-orbital sinus. For HS/PC transplantation 2500 KLS HS/PC were sorted from CD45.1 mice and mixed with 200,000 cKit− CD45.2 or cKit−, Terr119+ carrier cells prior to injection into lethally irradiated (160 kV, 25 mA, 6.31 Gy) CD45.2 recipient mice. […]

Assay [3] deals with Aspergillus fumigatus. Description: Survival after Aspergillus fumigatus infection following HS/PC transplantation. The format is in vivo, mice. Particulars: A. fumigatus infection on D8 after irradiation and HS/PC transplantation; three injections of 10 μg M-CSF. The method, then: as §1, §2, §3
Each mouse received three injections of 10 μg M-CSF: 1 h before HS/PC transplantation; 6 h and 18 h post-transplantation. Human M-CSF (rhMCSF, Chiron Corporation Inc., USA, now part of Novartis AG) and Mouse M-CSF was expressed in baculovirus (Bac. virus mMCSF^56) were used for the study.
Aspergillus fumigatus FGSC 1100 was provided by the Centre International de Ressources Microbiennes—Champignons Filamenteux (CIRM-CF, Marseille, France). For each experiment, cultures were grown on Malt agar medium (2% malt extract, 2% Bacto-agar DIFCO) for 5 days at 25° C. Conidial suspension was prepared in sterile saline according to Bitmansour et al. (2002)^55. […]

The subject of assay [4] is Aspergillus fumigatus. Put plainly: Fungal culture of infected organs. The format is in vivo. The note with it: lungs, liver and heart; 48 h after infection; versus untreated mice. The method, then: The organs (lungs, liver, heart and spleen) were harvested, weighed and tissue homogenates were prepared in PBS. The homogenates were serially diluted and 200 μL or each dilution was plated on Sabouraud dextrose agar (DIFCO). The plates were incubated at 25° C. and pictures were taken after 3-5 days.
Furthermore in the mice succumbing to infection death was slightly delayed from D9-D14 in untreated mice to D10-D15 in the rhMCSF treated group. For analysis of fungal load, mice were killed at 48 h after infection and tissue homogenates were prepared from lungs, liver and heart. […] Fungal tissue cultures were incubated beyond 96 h to verify the typical colony morphology of A. fumigatus.

Assay [5] concerns PU.1 expression in sorted HSC. Description: Quantitative RT-PCR of PU.1 expression in sorted HSC in culture. In kind it is cell-based, mice. Particulars: 16 h in culture with cytokine, 100 ng/ml. The protocol: CD150+CD34− KSLF HSC or CD150+CD34− CD48− KSLF HSC (single cells) were sorted into S-clone SF-03 medium (Sanko Jyunyaku) with 10% FBS supplemented with 100 U/ml penicillin and […] streptomycin (both Invitrogen) and cultivated in uncoated U-Shape 96 well plates (Greiner) in 100 μl SCM, 20 ng/ml rSCF, 50 ng/ml rTPO+/−100 ng/ml rM-CSF or 100 ng/ml rGM-CSF or 100 ng/ml rG-CSF. All cytokines were murine and from PeproTech. Cell viability was analyzed by AnnexinV and Propidium iodide FACS staining^35.
Total RNA was isolated and reverse transcribed with μMACS™ ONE-STEP T7 template kit (Miltenyi Biotec) and analysed by quantitative real-time PCR using TAQMAN® Universal PCR Master Mix and a 7500 Fast Real Time PCR System sequence detection system (both Applied Biosystem), following the manufacturers' instructions.

B1: rhMCSF: Human M-CSF (rhMCSF, Chiron Corporation Inc., USA, now part of Novartis AG) (protein, UniProt P09603 33-554, looked up)
Macrophage colony-stimulating …: EEVSEYCSHMIGSGHLQSLQRLIDSQMETSCQITFEFVDQEQLKDPVCYLKKAFLLVQDIMEDTMRFRDNTPNAIAIVQLQELSLRLKSCFTKDYEEHDKACVRTFYETPLQLLEKVKNVFNETKNLLDKDWNIFSKNCNNSFAECSSQDVVTKPDCNCLYPKAIPSSDPASVSPHQPLAPSMAPVAGLTWEDSEGTEGSSLLPGEQPLHTVDPGSAKQRPPRSTCQSFEPPETPVVKDSTIGGSPQPRPSVGAFNPGMEDILDSAMGTNWVPEEASGEASEIPVPQGTELSPSRPGGGSMQTEPARPSNFLSASSPLPASAKGQQPADVTGTALPRVGPVRPTGQDWNHTPQKTDHPSALLRDPPEPGSPRISSLRPQGLSNPSTLSAQPQLSRSHSSGSVLPLGELEGRRSTRDRRSPAEPEGGPASEGAARPLPRFNSVPLTDTGHERQSEGSFSPQLQESVFHLLVPSVILVLLAVGGLLFYRWRRRSHQEPQRADSPLEQPEGSPLTQDDRQVELPV
Consider B1, for which, in the assay with Pseudomonas aeruginosa [1], the moribund mice result is recorded as “two to three of the 10 mice”. Also, the “tissue load of bacteria” value with Pseudomonas aeruginosa [1] (spleen, lungs, liver and heart, versus untreated mice) is recorded as “significant decrease”. For the same molecule, the survival in the assay on Pseudomonas aeruginosa [2] is reported as 50%; in the assay with Aspergillus fumigatus [3], 40%. For the same molecule, the “tissue load of fungal colonies” value in the assay on Aspergillus fumigatus [4] is given as “significant decrease”.

B2: G-CSF: murine granulocyte colony-stimulating factor from PeproTech (protein, UniProt P09920 31-208, looked up)
Granulocyte …: VPLVTVSALPPSLPLPRSFLLKSLEQVRKIQASGSVLLEQLCATYKLCHPEELVLLGHSLGIPKASLSGCSSQALQQTQCLSQLHSGLCLYQGLLQALSGISPALAPTLDLLQLDVANFATTIWQQMENLGVAPTVQPTQSAMPAFTSAFQRRAGGVLAISYLQGFLETARLALHHLA
With B2, the “PU.1 expression in FACS purified HSC” value in assay [5] is “not”.

B3: mouse MCSF: Mouse M-CSF expressed in baculovirus (protein, UniProt P07141 33-552, looked up)
Macrophage colony-stimulating …: KEVSEHCSHMIGNGHLKVLQQLIDSQMETSCQIAFEFVDQEQLDDPVCYLKKAFFLVQDIIDETMRFKDNTPNANATERLQELSNNLNSCFTKDYEEQNKACVRTFHETPLQLLEKIKNFFNETKNLLEKDWNIFTKNCNNSFAKCSSRDVVTKPDCNCLYPKATPSSDPASASPHQPPAPSMAPLAGLAWDDSQRTEGSSLLPSELPLRIEDPGSAKQRPPRSTCQTLESTEQPNHGDRLTEDSQPHPSAGGPVPGVEDILESSLGTNWVLEEASGEASEGFLTQEAKFSPSTPVGGSIQAETDRPRALSASPFPKSTEDQKPVDITDRPLTEVNPMRPIGQTQNNTPEKTDGTSTLREDHQEPGSPHIATPNPQRVSNSATPVAQLLLPKSHSWGIVLPLGELEGKRSTRDRRSPAELEGGSASEGAARPVARFNSIPLTDTGHVEQHEGSSDPQIPESVFHLLVPGIILVLLTVGGLLFYKWKWRSHRDPQTLDSSVGRPEDSSLTQDEDRQVELPV
Regarding B3, the survival in the assay with Pseudomonas aeruginosa [2] stood at 87.5%; in the assay with Aspergillus fumigatus [3], 60%.

B4: GM-CSF: murine granulocyte-macrophage colony-stimulating factor from PeproTech (protein, UniProt P01587 18-141, looked up)
Granulocyte-macrophage …: APTRSPITVTRPWKHVEAIKEALNLLDDMPVTLNEEVEVVSNEFSFKKLTCVQTRLKIFEQGLRGNFTKLKGALNMTASYYQTYCPPTPETDCETQVTTYADFIDSLKTFLTDIPFECKKPGQK
Take B4: the “PU.1 expression in FACS purified HSC” value in assay [5] is reported as “not”.

For the origin of these results see patent US10709762B2, “Use of M-CSF for preventing or treating myeloid cytopenia and related complications” (priority 2013, dated 2020).
